Experimental data from US20230167188A1 (BIOLOJIC DESIGN, published 2023).
Changes are numbered by the printed parent chain. In names and notes the source's numbering stands.

T1: human TNFR2 (residues 1-461) expressed on HEK-TNFR2 reporter cells (human, UniProt P20333 23-461)
T1 sequence (looked up): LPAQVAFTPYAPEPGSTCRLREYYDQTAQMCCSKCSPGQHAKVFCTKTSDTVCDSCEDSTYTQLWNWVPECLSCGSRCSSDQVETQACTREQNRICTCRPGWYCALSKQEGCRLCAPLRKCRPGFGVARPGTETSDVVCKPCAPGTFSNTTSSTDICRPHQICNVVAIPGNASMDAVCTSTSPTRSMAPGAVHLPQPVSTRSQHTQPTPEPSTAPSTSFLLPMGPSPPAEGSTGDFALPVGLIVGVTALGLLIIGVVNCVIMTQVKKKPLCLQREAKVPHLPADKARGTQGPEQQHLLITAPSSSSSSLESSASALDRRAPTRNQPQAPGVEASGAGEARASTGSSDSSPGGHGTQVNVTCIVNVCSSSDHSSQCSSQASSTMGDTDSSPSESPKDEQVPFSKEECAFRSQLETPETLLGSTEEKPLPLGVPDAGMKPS

T2: recombinant human TNFR2 with 6×his tag (human, UniProt P20333 23-257, limits assumed)
T2 construct: Bought (Reprokine, Israel); also called TNFR2-His; hTNFR2-His; not shown: 6xHis tag
T2 sequence (looked up): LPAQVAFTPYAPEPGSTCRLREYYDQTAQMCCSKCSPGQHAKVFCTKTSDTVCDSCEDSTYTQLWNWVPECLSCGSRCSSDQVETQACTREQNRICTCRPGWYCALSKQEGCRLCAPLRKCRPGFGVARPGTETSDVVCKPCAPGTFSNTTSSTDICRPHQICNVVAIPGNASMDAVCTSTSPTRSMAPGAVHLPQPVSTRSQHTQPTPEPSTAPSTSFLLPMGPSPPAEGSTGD

B1: BDG30.086 (antibody, human IgG1, kappa)
heavy: not shown
light: DIQMTQSPSSLSASVGDRVTITCRASQDISTAVAWSQQKPGKAPKLLIYPASSLYSGVPSRFSGSRSGTDFTLTISSLQPEDFATYYCQQHPYTPPTFGQGTKVEIKRTVAAPSVFIFPPSDEQLKSGTASVVCLLNNFYPREAKVQWKVDNALQSGNSQESVTEQDSKDSTYSLSSTLTLSKADYEKHKVYACEVTHQGLSSPVTKSFNRGEC
notes: Human IgG1; also called IgG of CID_262
B2: BDG30.203 (antibody, human IgG1, kappa, L234A L235A)
heavy: not shown
light: B1 light with I29V, H91P, P92T, Y93L
B3: BDG30.204 (antibody, human IgG1, kappa, L234A L235A)
heavy: not shown
light: B1 light with I29V, S36Y, H91P, P92G
B4: BDG30.202 (antibody, human IgG1, kappa, L234A L235A)
heavy: not shown
light: B1 light with P50S, H91P, P92S, Y93L
B5: BDG30.088 (antibody, human IgG1, kappa)
heavy: not shown
light: B1 light with I29V, S36Y, H91P, P92G
notes: Human IgG1; also called IgG of CID_266
B6: BDG30.087 (antibody, human IgG1, kappa)
heavy: not shown
light: B1 light with I29V, H91P, P92T, Y93L
notes: Human IgG1; also called IgG of CID_264
B7: BDG30.085 (antibody, human IgG1, kappa)
heavy: not shown
light: B1 light with P50S, H91P, P92S, Y93L
notes: Human IgG1; also called IgG of CID_261
B8: BDG30.116 (antibody, human IgG1, kappa, L234A L235A)
heavy: not shown
light: B1 light
notes: Human IgG1(L234A/L235A); also called IgG of CID_262
B9: BDG30.113 (antibody, human IgG1, kappa, L234A L235A, V domains shown)
VH: EVQLVQSGPELKKPGASVKVSCKGSGYTFTDLGMGWVRQAPGQGLEWMGWINTQTGEPFYADDFKGRFVFSLDTSVSTAYLQISSLKAEDTAVYYCTRDHPLGLDYWGQGTLVTVSS
VL: DIQVTQSPSSLSASVGDRVTITCITSQSVDVAGVSYLNWYQQKPGKVPKFLIHKASNLRSGVPSRFSGSGSGTDFTLTISSLQPEDVATYYCQQAREDPYTFGQGTKVEIKR
notes: Human IgG1(L234A/L235A); also called IgG of CID_327
B10: BDG30.114 (antibody, human IgG1, kappa, L234A L235A, V domains shown)
VH: B9 VH with G35N, Y95F, T97A
VL: B9 VL with A32N, H53Y, N57I, A95S
notes: Human IgG1(L234A/L235A); also called IgG of CID_328
B11: BDG30.032 (antibody, human IgG1, kappa)
heavy: not shown
light: DIQMTQSPILLSASVGDRVTITCRASQDVSTAVAWSQQRTNGSPRLLIYSASSLYSGVPSRFSGSRSGTDFTLTISSLQPEDIADYYCQQPTYTPPTFGAGTKVEIKRTVAAPSVFIFPPSDEQLKSGTASVVCLLNNFYPREAKVQWKVDNALQSGNSQESVTEQDSKDSTYSLSSTLTLSKADYEKHKVYACEVTHQGLSSPVTKSFNRGEC
notes: Human IgG1; produced in HEK cells by Genscript; also called IgG of CID_436
B12: BDG30.115 (antibody, human IgG1, kappa, L234A L235A)
heavy: not shown
light: B11 light
B13: CID_436 (scFv)
scFv: DIQMTQSPILLSASVGDRVTITCRASQDVSTAVAWSQQRTNGSPRLLIYSASSLYSGVPSRFSGSRSGTDFTLTISSLQPEDIADYYCQQPTYTPPTFGAGTKVEIKEVQLVESGGGLVQPGGSLRLSCAASGFNIRDTYIHWVRQSPGKGLEWVADIDPDNGDTRYADSVKGRFTISADTSKNTAYLQMNSLRAEDTAIYYCSRDLADGYNAFDRWGQGTLVTVSS
B14: CID_437 (scFv)
scFv: B13 scFv with T92P, Y140F, D206E, L207G, A208E, F214W, R216L
B15: CID_324 (scFv)
scFv: EVQLVQSGPELKKPGASVKVSCKGSGYTFTDLGINWVRQAPGQGLEWMGWINTHTGEPFYADDFKGRFVFSLDTSVSTAYLQISSLKAEDTAVYYCTRDHPLGLDYWGQGTLVTVSSDIQVTQSPSSLSASVGDRVTITCITSQSVDVNGVSYLNWYQQKPGKVPKFLIYKASRLRSGVPSRFSGSGSGTDFTLTISSLQPEDVATYYCQQSREDPYTFGQGTKVEIK
B16: CID_323 (scFv)
scFv: B15 scFv with G24A, I34M, E57M, T97A, R174N, S177P
B17: CID_328 (scFv)
scFv: B15 scFv with I34M, H54Q, Y95F, T97A, R174I
B18: CID_325 (scFv)
scFv: B15 scFv with G24A, N35G, V151L, P165T, R174N, R176G
B19: CID_327 (scFv)
scFv: B15 scFv with I34M, N35G, H54Q, N149A, Y170H, R174N, S212A
B20: CID_326 (scFv)
scFv: B15 scFv with G24A, I34M, E57K, R174N
B21: CID_330 (scFv)
scFv: B15 scFv with F59Y, T97A, L154M, S173V, R174N, S177P
B22: CID_329 (scFv)
scFv: B15 scFv with Y95F, R174N, S177P
B23: CID_251 (scFv)
scFv: EVQLVQSGAEVKKPGSSVKVSCKASGDTFTSYSFNWVRQAPGQGLEWMGRIITILDDTEYAPHLQGRVTITADKSTSTVYLELRNLRSDDTAVYFCAGVYEGPNSEGSYDDYGFLKHWGQGTLVTVSSDIVMTQSPATLSVSPGERATLSCRASESVANDLAWYQQKPGQVPRLLIYGASTRATGVPARFSGSGSGAEFTLTISSLQSEDFAVYYCQQYANWPPRETFGQGTRLEIK
B24: BDG30.089 (antibody, human IgG1, kappa, V domains shown)
VH: EVQLVESGGGLVQPGGSLRLSCAASGFNIRDYYIHWVRQAPGKGLEWVADIDPTNGDTRYADSVKGRFTISADTSKNTAYLQMNSLRAEDTAVYYCSREGQDGYNAWDLWGQGTLVTVSS
VL: DIQMTQSPSSLSASVGDRVTITCRASQDVSTAVAWYQQKPGKAPKLLIYPASSLYSGVPSRFSGSRSGTDFTLTISSLQPEDFATYYCQQHPYTPPTFGQGTKVEIKR
notes: Human IgG1; also called IgG of CID_267
B25: BDG30.084 (antibody, human IgG1, kappa, V domains shown)
VH: B24 VH with D31A, Y32F, A40S, V93I, S97T, Q101E, W107F, L109Q
VL: DIQMTQSPILLSASVGDRVTITCRASQDVSTAVAWYQQRTNGSPRLLIYPASSLYSGVPSRFSGSRSGTDFTLTISSLQPEDIADYYCQQPRYTPPTFGAGTKVEIKR
notes: Human IgG1; also called IgG of CID_234
B26: BDG30.081 (antibody, human IgG1, kappa, V domains shown)
VH: B24 VH with D31A, Y32T, A40S, D52S, T54D, V93I, E99D, G100L, Q101A, W107F
VL: B25 VL with Y36S, P50S, P91H, R92G
notes: Human IgG1; also called IgG of CID_231

target: T1, human TNFR2 (residues 1-461) expressed …; assay: cell-based or functional assay

Row | Functional Agonism EC50 (nM), NFkB-SEAP reporter [nM] | Binder
1 | 1.4 | B1
2 | 0.5 | B2
3 | 3.1 | B3
4 | 2.9 | B4
5 | 49 | B5
6 | 3.9 | B6
7 | 24.7 | B7
8 | 3 | B8
9 | 3.8 | B9
10 | 6.4 | B10
11 | 0.85 | B11
12 | 1 | B12

target: T2, recombinant human TNFR2 with 6×his tag; assay: yeast surface display, TNFR2-His titrated, flow cytometry MFI
Experimental: To determine the effective concentration₅₀ (EC₅₀) of TNFR2 binding to yeast scFv or Fab clones (EC₅₀— TNFR2 binding), specific clones were labeled at TNFR concentrations ranging from 0.1 nM to 1000 nM and analyzed on an FACS. Median fluorescence intensity (MFI) was determined for each TNFR2 concentration and EC₅₀ (TNFR2 binding) was calculated using Prisma 8 GraphPad (GraphPad, San Diego, USA) software.

Row | EC50 [nM] | Binder
13 | 3.4 | B13
14 | 1.2 | B14
15 | 5.6 | B15
16 | 5.2 | B16
17 | 5.7 | B17
18 | 2.9 | B18
19 | 4.5 | B19
20 | 6 | B20
21 | 17.7 | B21
22 | 8.6 | B22
23 | 1 | B23

target: T2, recombinant human TNFR2 with 6×his tag; assay: ELISA, IgG coated, hTNFR2-His titrated, anti-His-HRP
Experimental: IgG binding affinity to TNFR2 was examined by ELISA. 96 well plates (Greiner Bio-One high binding) were coated with (50 ng/well) of the analyzed antibody and incubated overnight at 4° C. The plates were then washed three times with 300 μl PBS buffer containing 0.05% Tween 20 (PBS-T), blocked with 300μ PBS-T supplemented with 1% to 2% BSA, and incubated for 1 hour at room temperature. Antibodies-coated plates were washed three times with 300 μl PBS-T and incubated with serial dilutions of test ligand hTNFR2-His (Reprokine, Israel) in a final volume of […] for 1-2 hours. Plates were then washed three times with 300 μl PBS-T and incubated with 50 μl anti-HIS-HRP (Santa Cruz Biotechnology, USA, SC-8036HRP) conjugate that was diluted 1:250 in PBS. After an additional wash step of six washes, the reaction was developed with […] tetramethylbenzidine (TMB) reagent (Southern biotech, USA), and stopped with […] 0.5N H₂SO₄. Detection was done on a Synergy LX BioTek (BioTek, USA) plate reader with an absorbance filter set to […]. The binding affinity was determined by fitting the data to a specific binding non-linear regression model on Prisma 8 GraphPad software.
To test binding affinity of clones reformatted as IgG1 and IgG1LALA to TNFR2, an ELISA EC₅₀ binding experiment was conducted for each antibody.

Row | EC50 [nM] | Binder
24 | 8.1 | B1
25 | 13.1 | B5
26 | 50.4 | B24
27 | 18.4 | B6
28 | 4.3 | B7
29 | 5.1 | B8
30 | 2.5 | B9
31 | 2.2 | B10
32 | 21.9 | B11
33 | 58.9 | B25
34 | 50.7 | B26
